Test results published in patent publication US20210047398A1, “ASPROSIN, A FAST-INDUCED GLUCOGENIC PROTEIN HORMONE” (Baylor College of Medicine, priority 2016, published 2021).

What was measured:
[1] = system: hepatic glucose production; assay: Hyperinsulinemic-euglycemic clamp; assay type: in vivo, mice
Procedure: (§1) Animals. […] MgR heterozygous mice were obtained from Jackson labs, and bred to obtain male MgR homozygous mice and WT littermates. 5-week-old male Ob/Ob mice were obtained from Jackson labs. […] For diet induced obesity studies, mice were placed on the adjusted calories diet providing 60% of calories from fat by Harlan-Teklad for 12 weeks. […] Mice were exposed to 30 μg recombinant His-tagged asprosin or recombinant Green Fluorescent Protein (GFP) daily for 10 days via subcutaneous injection. Mice were sacrificed and plasma and various organs were isolated 10 days after virus or peptide injection. For single dose injections, the same protocol was followed as that for daily injections, followed by collection of plasma at the indicated times via tail bleeds for insulin and glucose measurement. Insulin and glucose tolerance tests (ITT and GTT) were performed using standard procedures. […] For immunologic sequestration experiments, mice were injected intra-peritoneally with a 500 μg dose in saline of a custom-built (Thermo Scientific Inc.) anti-asprosin mouse monoclonal antibody directed against amino acids 106-134 (human profibrillin amino acids 2837-2865) or an equivalent dose of isotype matched IgG (Southern Biotech, Inc.). […] The Baylor College of Medicine Institutional Animal Care and Utilization Committee approved all experiments.

[2] = Plasma asprosin, glucose, insulin and hormones in mice after asprosin gain-of-function; assay type: in vivo
Procedure: as §1
Plasma metabolic parameters. Human plasma insulin was measured using a human insulin ELISA kit by Abcam. Mouse plasma insulin was measured using a mouse insulin ELISA kit by Millipore. Mouse plasma glucagon, epinephrine, norepinephrine and corticosterone were measured by the Vanderbilt University Hormone Assay & Analytical Services Core.

[3] = system: mouse primary hepatocytes; assay: In vitro glucose production assay (media glucose accumulation); conditions: 2 hours, 0-1100 nM recombinant asprosin
Procedure: Cell Culture. Primary mouse hepatocytes were isolated from 8- to 12-week-old WT mice using standard methodology. […] The cells were treated with 50 nM recombinant asprosin or GFP for 10 minutes for cAMP and PKA assays and for 2 hours for the in vitro glucose production assay. Cells were pretreated with various inhibitors for 1 hour prior to treatment with asprosin, GFP, Glucagon or Epinephrine. cAMP was measured from cell lysates using the cAMP direct immunoassay kit from Cell Biolabs. PKA activity was measured from cell lysates using the PKA kinase activity kit from Enzo Lifesciences, Inc. Media glucose content was measured using the Glucose Colorimetric Assay Kit from Biovision. Results were normalized to protein content.

[4] = rat, in vivo, iv
hepatocyte surface = assay: Asprosin-biotin conjugate binding to the hepatocyte surface; set-up: species or system mouse; conditions: 100-fold excess
Procedure: Recombinant asprosin was conjugated with biotin using the Basic Biotinylation Sulfo-NHS Kit from Pierce. […] The cells were washed 3 times with PBS without lysis, followed by addition of streptavidin-HRP. The resulting absorbance was measured colorimetrically and the results were normalized to protein content.

[5] = 2 hours after single 30 μg dose

B1: recombinant asprosin: 146 amino acid E. coli expressed fusion protein: 6 amino acid N-terminal His tag and 140 amino acid wild type asprosin (FBN1 2732-2871) (protein)
chain: HHHHHHSTNETDASNIEDQSETEANVSLASWDVEKTAIFAFNISHVSNKVRILELLPALTTLTNHNRYLIESGNEDGFFKINQKEGISYLHFTKKKPVAGTYSLQISSTPLYKKKELNQLEDKYDKDYLSGELGDNLKMKIQVLLH
[1]; elevated plasma asprosin, 10 days after FBN1 adenovirus (FIG. 21C)
  hepatic glucose production: increased hepatic glucose production
[1]; glucose disposal rate, FIG. 21D
  ability of peripheral organs to take up glucose in response to insulin: no impact
[2]; 15-20 minutes after single 30 μg dose
  plasma levels of catabolic hormones (glucagon, catecholamines, glucocorticoids): no effect
[2]; 15 minute time-point after single dose, 2-hour fast
  plasma insulin: compensatory hyperinsulinemia
[2]; [5]
  glucose uptake in peripheral organs in glucose- and insulin-tolerance tests: little evidence of altered glucose uptake
  peak glucose levels in glucose- and insulin-tolerance tests: altered peak glucose levels
[2]; 10 days of exposure, 2-hour fasted mice
  glucose and insulin levels: elevated
[2]; single 30 μg subcutaneous dose, 2-hour preceding fast
  blood glucose levels after a single dose: immediate spike
[2]; single dose, 2-hour fast
  time to normalized blood glucose levels post injection: ≤ 60 min
[2]; single dose, overnight preceding fast, otherwise similar results
  rate of the blood glucose spike: somewhat slower
[2]; single subcutaneous administration, overnight fasted MgR mice
  insulin deficit of MgR mice: sufficient to completely rescue the insulin deficit
[3]
  media glucose concentration: increase in glucose concentration in a dose-dependent manner
[4]
  elevation in CSF asprosin: 6 fold
  his-tag signal in the CSF: strong his-tag signal
Hepatocyte surface
  competition of asprosin-biotin binding: abolished the effect
